Results from publication PMC4471362.

Substrate: Nc1ncnc2c1ncn2[C@@H]1O[C@H](COP(=O)(O)OP(=O)(O)OP(=O)(O)O)[C@@H](O)[C@H]1O
Test: purified protein
Conditions: basal ATPase, 0.4 μM protein, 10 mM HEPES-KOH pH 7.5, 100 mM KCl, 2 mM MgCl2, 0.5 mM DTT, kcat unit as printed

B1: PfHsp70-z (Plasmodium falciparum 3D7) (protein)
chain: MSVLGIDIGNDNSVVATINKGAINVVRNDISERLTPTLVGFTEKERLIGDSALSKLKSNYKNTCRNIKNLIGKIGTDVKDDIEIHEAYGDLIPCEYNYLGYEVEYKNEKVVFSAVRVLSALLSHLIKMAEKYIGKECKEIVLSYPPTFTNCQKECLLAATKIINANVLRIISDNTAVALDYGMYRMKEFKEDNGSLLVFVNIGYANTCVCVARFFSNKCEILCDIADSNLGGRNLDNELIKYITNIFVNNYKMNPLYKNNTPELCPMGTGRLNKFLVTSTASDQQNGINNKVRIKLQEVAIKTKKVLSANNEASIHVECLYEDLDCQGSINRETFEELCSNFFLTKLKHLLDTALCISKVNIQDIHSIEVLGGSTRVPFIQNFLQQYFQKPLSKTLIADESIARGCVLSAAMVSKHYKVKEYECVEKVTHPINVEWHNINDASKSNVEKLYTRDSLKKKVKKIVIPEKGHIKLTAYYENTPDLPSNCIKELGSCIVKINEKNDKIVESHVMTTFSNYDTFTFLGAQTVTKSVIKSKDEKKKADDKTEDKGEKKDAKDQEQNDDKDQTNDNNMNEKDTNDKKEKNNETNSPNKTELKKGEEGKVQTCYTTIPIETLLAQGSYSSKDIFNFSEQEINMQHSDILEGERLKHLNELETIIYESRSRLNGIYKNFVMDDERDRILLSLDDYENWLYDNIEENKNMFIKKKEEIRDLIKNIVQKFDVYNSKQQNLGNIINHLNNIITQCSNKPSDESQNIINRTTKFLNNINSLQEQEKNKPLYEPPVYTLNDIEAEFNEVTQLAQKFFSKLEVEELAKQKAKQEKEKEKEKEKEKEKEKEKNEETNLDANEEQNNEAKNNEEKENSTKNENSANPEE
With B1 the Km was 283 (+/-3) μM and the Vmax was 0.0198 µmol/min/mg.
